The record followed here is paper PMC12412785.

One may read the Kd as the equilibrium constant for the complex coming apart. A low value points to higher affinity.

Where only a bound is given, the exact number is not on record here.

Data set [1] addresses biotinylated PpBRCA2-BRC4 peptide (P. patens). The data set is described as follows: BLI; biotinylated BRC peptides (0.5 μM) immobilised on streptavidin biosensors, PpRAD51-2 in solution in two-fold serial dilutions; 25°C; buffer A (25 mM Tris pH 7.5, 100 mM Na2SO4, 5 mM β-mercaptoethanol) with 0.05% Tween-20; Kd in steady-state mode. (Biolayer interferometry detects binding as a change in optical thickness at a sensor tip.)

Data set [2] has as its target biotinylated PpBRCA2-BRC1 peptide (P. patens). The data set is described as above.
The target in data set [3] is biotinylated PpBRCA2-BRC2 peptide (P. patens). The description is as above.
For data set [4], the target named is 6His-PpBRCA2-Cter (amino acids 251–391) (P. patens). The data set is described as follows: BLI; 6His-PpBRCA2-Cter immobilised on Ni-NTA biosensors, PpRAD51-2 in solution (1.88–30 nM); buffer A with 0.1% Tween-20; 25°C.
Data set [5] deals with PpBRCA2-NterT138 (Physcomitrium patens). The data set is described as follows: BLI. Particulars: text cites Fig. 7B; Kd in Fig. 7C not in text; EMSA: 10 mM Tris-HCl pH 7.5, 50 mM NaCl, 5 mM MgCl2, 2 mM ATP, 1 mM DTT, 37 C, 7 min (RAD51/DMC1 15 min), 0.01% glutaraldehyde; BLI: 25 mM Tris pH 7.5, 100 mM …. (A gel shift assay detects complexes by their altered migration in electrophoresis.)

Data set [6] has as its target PpRAD51-2, purified recombinant (P. patens).

For the substance “PpRAD51-2, purified recombinant (natural protein)”, the Kd in data set [1] is 400 nM; in data set [2], 400 nM; in data set [3], 800 nM; in data set [4], 4.3 nM.

For the substance 100 nt ssDNA (BLI), in data set [5], the fold decrease in affinity relative to PpBRCA2-Nter (fold weaker affinity than PpBRCA2-Nter) was 50.

Turning to biotinylated PpBRCA2-BRC4 peptide, the concentration needed for complete inhibition of PpRAD51-ssDNA filament formation (EMSA; 1 μM RAD51-2, 3 μM 100 nt ssDNA, 0–4 μM PpBRCA2-BRC4) in data set [6] was above 4 µM.

As for “6His-PpBRCA2-Cter (amino acids 251–391) (domain or fragment)”, the concentration needed for complete inhibition of PpRAD51-ssDNA filament formation (EMSA; 1 μM RAD51-2, 3 μM 100 nt ssDNA, 0–4 μM PpBRCA2-Cter) in data set [6] is 2 µM.
